B1: EKC/KEOPS complex subunit LAGE3 (Homo sapiens), Q14657 (parent)
chain: MRDADADAGGGADGGDGRGGHSCRGGVDTAAAPAGGAPPAHAPGPGRDAASAARGSRMRPHIFTLSVPFPTPLEAEIAHGSLAPDAEPHQRVVGKDLTVSGRILVVRWKAEDCRLLRISVINFLDQLSLVVRTMQRFGPPVSR
partner: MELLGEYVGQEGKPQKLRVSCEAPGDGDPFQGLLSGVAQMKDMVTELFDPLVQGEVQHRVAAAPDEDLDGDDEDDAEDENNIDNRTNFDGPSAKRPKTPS

Variants of: B1
Conditions: with gon7_human GON7, Q9BXV9

Variant | effect of a mutation on the interaction
MRDADADAGGGADGGDGRGGHSCRGGVDTAAAPAGGAPPAHAPGPGRDAASAARGSRMRPHIFTLSVPFPTPLEAEIAHGSLAPDAEPHQRVVGKDLTVSGRILVFRWKAEDCRLLRISVINFLDQLSLVVRTMQRFGPPVSR [V106F] | with no effect
MRDADADAGGGADGGDGRGGHSCRGGVDTAAAPAGGAPPAHAPGPGRDAASAARGSRMRPHIFTLSVPFPTPLEAEIAHGSLAPDAEPHQRVVGKDLTVSGRILVVRWKAEDCRLLRISVINFLDQLSLVVRTMQRSGPPVSR [F137S] | with no effect

From IntAct's records for PubMed 31481669
